FireProtDB (doi:10.1021/bi00102a015)

B1: Cytochrome c2, P00094 (parent)
chain: MKISLTAATVAALVLAAPAFAGDAAKGEKEFNKCKTCHSIIAPDGTEIVKGAKTGPNLYGVVGRTAGTYPEFKYKDSIVALGASGFAWTEEDIATYVKDPGAFLKEKLDDKKAKTGMAFKLAKGGEDVAAYLASVVK

Variants of: B1
Conditions: Rhodobacter capsulatus (strain ATCC BAA-309 / NBRC 16581 / SB1003); pH 7.5; 25 °C; GdnHCl; CD; Tris-HCl 20 mM; NaCl 40 mM; structure 1C2R; whole UniProt chain shown

Variant | ddG of mutation (higher = less stable) | denaturant m value | denaturant midpoint (higher = more stable) | unfolding free energy
MKISLTAATVAALVLAAPAFAGDAAKGEKEFNKCETCHSIIAPDGTEIVKGAETGPNLYGVVGRTAGTYPEFKYKDSIVALGASGFAWTEEDIATYVKDPGAFLKEKLDDKKAKTGMAFKLAKGGEDVAAYLASVVK [K35E K53E] | 0.8 kcal/mol | 3 kcal/mol/M | 1.2 M | 3.6 kcal/mol
MKISLTAATVAALVLAAPAFAGDAAKGEKEFNDCKTCHSIIAPDGTEIVKGAKTGPNLYGVVGRTAGTYPEFKYKDSIVALGASGFAWTEEDIATYVKDPGAFLKEKLDDKKAKTGMAFKLAKGGEDVAAYLASVVK [K33D] | 1.1 kcal/mol | 2.8 kcal/mol/M | 1.2 M | 3.3 kcal/mol
MKISLTAATVAALVLAAPAFAGDAAKGEKEFNKCETCHSIIAPDGTEIVKGAKTGPNLYGVVGRTAGTYPEFKYKDSIVALGASGFAWTEEDIATYVKDPGAFLKEKLDDKKAKTGMAFKLAKGGEDVAAYLASVVK [K35E] | 0.9 kcal/mol | 2.8 kcal/mol/M | 1.2 M | 3.5 kcal/mol
MKISLTAATVAALVLAAPAFAGDAAKGEKEFNKCKTCHSIIAPDGTEIVKGAETGPNLYGVVGRTAGTYPEFKYKDSIVALGASGFAWTEEDIATYVKDPGAFLKEKLDDKKAKTGMAFKLAKGGEDVAAYLASVVK [K53E] | -0.4 kcal/mol | 3 kcal/mol/M | 1.6 M | 4.8 kcal/mol
